According to publication PMC4205158 (Structure (London, England : 1993), 2008):
Entries after “also recorded” stand apart in the source; their conditions may differ. Each block holds one molecule with its values, some of them ahead of it.

Experiments:
IRAK1b = assay: GST-pulldown of IRAK1b; details: qualitative; HEK293T lysates; kinase-inactive IRAK1b
IRAK1-ki = assay: GST-pulldown of kinase-inactive mutant IRAK1-ki; details: qualitative, HEK293T lysates

Kd (Rad9(pT192) peptide): > 100 µM
Molecule: Purified Pellino2 (from UniProt Q9HAT8 1-420) (natural protein)

B1: Pellino2: GST-fusion protein of full-length Pellino2 (human cDNA) (protein)
chain: MFSPGQEEHCAPNKEPVKYGELVVLGYNGALPNGDRGRRKSRFALYKRPKANGVKPSTVHVISTPQASKAISCKGQHSISYTLSRNQTVVVEYTHDKDTDMFQVGRSTESPIDFVVTDTISGSQNTDEAQITQSTISRFACRIVCDRNEPYTARIFAAGFDSSKNIFLGEKAAKWKNPDGHMDGLTTNGVLVMHPRGGFTEESQPGVWREISVCGDVYTLRETRSAQQRGKLVESETNVLQDGSLIDLCGATLLWRTADGLFHTPTQKHIEALRQEINAARPQCPVGLNTLAFPSINRKEVVEEKQPWAYLSCGHVHGYHNWGHRSDTEANERECPMCRTVGPYVPLWLGCEAGFYVDAGPPTHAFTPCGHVCSEKSAKYWSQIPLPHGTHAFHAACPFCATQLVGEQNCIKLIFQGPID
modifications: left off: His6, N-terminal, cleaved
interaction with IRAK1b in GST-pulldown (IRAK1b): are not precipitated; also recorded: do not interact
interaction with IRAK1-ki in GST-pulldown (IRAK1-ki): are not precipitated; also recorded: do not interact
